From US20210292390A1, “CHIMERIC ANTIGEN RECEPTORS” (Oxford University Innovation Limited, priority 2016, published 2021)

T1: SLP-76 (Homo sapiens, UniProt Q13094)
T1 construct: endogenous in cells; host or cells: Jurkat cells
T1 sequence (Q13094 1-533): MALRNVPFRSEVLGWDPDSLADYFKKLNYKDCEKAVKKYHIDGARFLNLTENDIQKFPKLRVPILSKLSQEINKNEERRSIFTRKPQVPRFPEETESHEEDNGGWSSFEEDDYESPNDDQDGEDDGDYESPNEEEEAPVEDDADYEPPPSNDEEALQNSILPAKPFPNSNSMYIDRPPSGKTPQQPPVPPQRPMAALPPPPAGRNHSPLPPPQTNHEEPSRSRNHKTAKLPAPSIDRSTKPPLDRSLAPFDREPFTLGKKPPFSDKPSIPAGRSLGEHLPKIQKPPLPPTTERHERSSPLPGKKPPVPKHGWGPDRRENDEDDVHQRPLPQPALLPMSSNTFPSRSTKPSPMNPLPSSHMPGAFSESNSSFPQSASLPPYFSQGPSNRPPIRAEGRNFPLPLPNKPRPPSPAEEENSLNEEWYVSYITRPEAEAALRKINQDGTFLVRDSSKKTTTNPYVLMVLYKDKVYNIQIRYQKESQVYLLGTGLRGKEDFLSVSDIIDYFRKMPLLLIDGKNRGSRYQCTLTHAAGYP

T2: GADS (Homo sapiens, UniProt O75791)
T2 construct: endogenous in cells; host or cells: Jurkat cells
T2 sequence (O75791 1-330): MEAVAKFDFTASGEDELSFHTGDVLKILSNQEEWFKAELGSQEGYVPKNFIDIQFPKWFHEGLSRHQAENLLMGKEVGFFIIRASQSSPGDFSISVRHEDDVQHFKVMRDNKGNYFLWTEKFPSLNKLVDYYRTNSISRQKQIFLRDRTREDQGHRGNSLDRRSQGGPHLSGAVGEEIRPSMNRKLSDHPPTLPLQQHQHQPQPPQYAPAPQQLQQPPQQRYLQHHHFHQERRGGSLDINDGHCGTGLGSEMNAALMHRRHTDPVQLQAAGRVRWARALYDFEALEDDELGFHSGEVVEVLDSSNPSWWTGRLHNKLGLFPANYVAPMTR


Legend:
2B4 Reay cells = assay: IL-2 secretion (ELISA) by hybridoma cells expressing chimeric receptors after CD6 crosslinking; format: cell-based, mouse
Description: The activity of the exemplary chimeric receptor was compared with that of a comparator chimeric receptor lacking the CD6-derived signalling region. Both chimeric receptor molecules contained the extracellular and transmembrane regions of human CD6 and the cytoplasmic region of mouse CD3 zeta. The exemplary chimeric receptor further comprised residues 623 to 668 from the C terminus of human CD6.
Murine T hybridoma cells were transduced to express either the exemplary or comparator chimeric receptors. Cells were assessed for their response to human CD6 monoclonal antibody immobilised on 96 well tissue culture plates. After incubation for 18 h at 37° C., the supernatants were analysed for the presence of mouse IL-2 by ELISA.
The activity of a comparator chimeric receptor (consisting of the extracellular region of human CD6 and the mouse CD3 zeta tail, effectively a first generation CAR in the cytoplasmic region) was investigated alongside the exemplary chimeric receptor illustrative of CARs or cells of the invention. […] The cells were stimulated with different concentrations of plate-bound T12.1 monoclonal antibody (mAb), a CD6 crosslinking antibody, overnight and secreted mouse IL-2 was measured by ELISA.

[1] = biological target: biotinylated CD6 peptide pY629 pY662 (human); assay: SPR (BIAcore 3000), equilibrium binding, biotinylated peptide on streptavidin CM5 chip, 37° C.
[2] = biological target: biotinylated CD6 peptide pY629 Y662 (human); assay: as above
[3] = biological target: biotinylated CD6 peptide pY629 pY662 (human); assay: SPR (BIAcore 3000), equilibrium binding, biotinylated peptide on streptavidin CM5 chip, 15° C.
[4] = biological target: biotinylated CD6 peptide pY629 Y662 (human); assay: as above
SLP-76 = biological target: T1, SLP-76; assay: Co-immunoprecipitation with CD6 constructs in Jurkat cells, Western blot; format: binding; conditions: Jurkat cells treated with Na3VO4
Description: (§1) In FIG. 2(A) Lysate of 8×10^5 Jurkat cells treated with the phosphatase inhibitor Na3VO4 or immunoprecipitation samples of 3×10^6 cells were loaded on gels and after electrophoretic separation they were blotted on nitrocellulose membranes. The membranes were probed with the indicated antibodies and visualised using LI-COR western blotting. FIG. 2(B) illustrates Western Blot bands of three independent CD6 co-immunoprecipitations were quantified using the software ImageJ. Each co-immunoprecipitation value is divided by the intensity of the band in the lysate to compensate for differences in cell numbers used and is normalised to the intensity of EGFP in the co-immunoprecipitation divided by the intensity of EGFP in the lysate to compensate for different expression levels of the constructs. Samples were analysed using the unpaired Student t test comparing values of mutants to the VVT. n=3, error bars show the standard error of the mean, * p<0.05, ** p<0.01, ns=not significant.

GADS = biological target: T2, GADS; assay: as above; format: binding; conditions: Jurkat cells treated with Na3VO4
Description: as §1

[5] = biological target: biotinylated CD6 peptide Y629 pY662 (human); assay: SPR (BIAcore 3000), equilibrium binding, biotinylated peptide on streptavidin CM5 chip, 37° C.
[6] = biological target: biotinylated CD6 peptide Y629 pY662 (human); assay: SPR (BIAcore 3000), equilibrium binding, biotinylated peptide on streptavidin CM5 chip, 15° C.
primary T cells = assay: Intracellular IL-2 in primary T cells after antibody stimulation; format: cell-based
CD4+ T cells = assay: Primary T cell activation by CD69 expression after CD3 and CD6 antibody stimulation; format: cell-based; conditions: CD3 antibodies and 5 μg/ml CD6 antibodies; three donors; versus untransduced cells
Method: CD4+ T cells were stimulated with CD3 antibodies and 5 μg/ml CD6 antibodies to crosslink transduced CD6.

Row | Kd [1] [nM] | Kd [3] [nM] | co-immunoprecipitation of SLP-76 (SLP-76) | co-immunoprecipitation of GADS (GADS) | Molecule | other results
1 |  |  |  |  | chimeric receptor of SEQ ID NO.4: human CD6 extracellular and transmembrane regions, mouse CD3 zeta cytoplasmic region, plus human CD6 C terminus (protein) MWLFFGITGLLTAALSGHPSPAPPDQLNTSSAESELWEPGERLPVRLTNGSSSCSGTVEVRLEASWEPACGALWDSRAAEAVCRALGCGGAEAASQLAPPTPELPPPPAAGNTSVAANATLAGAPALLCSGAEWRLCEVVEHACRSDGRRARVTCAENRALRLVDGGGACAGRVEMLEHGEWGSVCDDTWDLEDAHVVCRQLGCGWAVQALPGLHFTPGRGPIHRDQVNCSGAEAYLWDCPGLPGQHYCGHKEDAGAVCSEHQSWRLTGGADRCEGQVEVHFRGVWNTVCDSEWYPSEAKVLCQSLGCGTAVERPKGLPHSLSGRMYYSCNGEELTLSNCSWRFNNSNLCSQSLAARVLCSASRSLHNLSTPEVPASVQTVTIESSVTVKIENKESRELMLLIPSIVLGILLLGSLIFIAFILRAKFSRSAETAANLQDPNQLYNELNLGRREEYDVLEKKRARDPEMGGKQQRRRNPQEGVYNALQKDKMAEAYSEIGTKGERRRGKGHDGLYQGLSTATKDTYDALHMQTLAPRTSSGEWYQNFQPPPQPPSEEQFGCPGSPSPQPDSTDNDDYDDISAA | increase of IL-2 production as compared to a control receptor lacking the CD6-derived signalling region (2B4 Reay cells): at least 2.5 fold
2 | 770 to 1580 | 140 to 2050 |  |  | recombinant GADS SH2 domain (his-tagged) (protein, UniProt O75791 58-149, looked up) WFHEGLSRHQAENLLMGKEVGFFIIRASQSSPGDFSISVRHEDDVQHFKVMRDNKGNYFLWTEKFPSLNKLVDYYRTNSISRQKQIFLRDRT | Kd [2]: 600 to 880 nM; Kd [4]: 150 to 620 nM
3 |  |  | strongly reduced | strongly reduced | CD6 Y629F: mutant form of CD6 with tyrosine Y629 substituted (protein, left off: large carriers; small tags and cut ends, mutant form of CD6 with tyrosine Y629 substituted) DQLNTSSAESELWEPGERLPVRLTNGSSSCSGTVEVRLEASWEPACGALWDSRAAEAVCRALGCGGAEAASQLAPPTPELPPPPAAGNTSVAANATLAGAPALLCSGAEWRLCEVVEHACRSDGRRARVTCAENRALRLVDGGGACAGRVEMLEHGEWGSVCDDTWDLEDAHVVCRQLGCGWAVQALPGLHFTPGRGPIHRDQVNCSGAEAYLWDCPGLPGQHYCGHKEDAGAVCSEHQSWRLTGGADRCEGQVEVHFRGVWNTVCDSEWYPSEAKVLCQSLGCGTAVERPKGLPHSLSGRMYYSCNGEELTLSNCSWRFNNSNLCSQSLAARVLCSASRSLHNLSTPEVPASVQTVTIESSVTVKIENKESRELMLLIPSIVLGILLLGSLIFIAFILLRIKGKYALPVMVNHQHLPTTIPAGSNSYQPVPITIPKEVFMLPIQVQAPPPEDSDSGSDSDYEHYDFSAQPPVALTTFYNSQRHRVTDEEVQQSRFQMPPLEEGLEELHASHIPTANPGHCITDPPSLGPQYHPRSNSESSTSSGEDYCNSPKSKLPPWNPQVFSSERSSFLEQPPNLELAGTQPAFSAGPPADDSSSTSSGEWFQNFQPPPQPPSEEQFGCPGSPSPQPDSTDNDDYDDISAA | 
4 |  |  | strongly reduced | strongly reduced | CD6 Y662F: mutant form of CD6 with tyrosine Y662 substituted (protein, left off: large carriers; small tags and cut ends, mutant form of CD6 with tyrosine Y662 substituted) DQLNTSSAESELWEPGERLPVRLTNGSSSCSGTVEVRLEASWEPACGALWDSRAAEAVCRALGCGGAEAASQLAPPTPELPPPPAAGNTSVAANATLAGAPALLCSGAEWRLCEVVEHACRSDGRRARVTCAENRALRLVDGGGACAGRVEMLEHGEWGSVCDDTWDLEDAHVVCRQLGCGWAVQALPGLHFTPGRGPIHRDQVNCSGAEAYLWDCPGLPGQHYCGHKEDAGAVCSEHQSWRLTGGADRCEGQVEVHFRGVWNTVCDSEWYPSEAKVLCQSLGCGTAVERPKGLPHSLSGRMYYSCNGEELTLSNCSWRFNNSNLCSQSLAARVLCSASRSLHNLSTPEVPASVQTVTIESSVTVKIENKESRELMLLIPSIVLGILLLGSLIFIAFILLRIKGKYALPVMVNHQHLPTTIPAGSNSYQPVPITIPKEVFMLPIQVQAPPPEDSDSGSDSDYEHYDFSAQPPVALTTFYNSQRHRVTDEEVQQSRFQMPPLEEGLEELHASHIPTANPGHCITDPPSLGPQYHPRSNSESSTSSGEDYCNSPKSKLPPWNPQVFSSERSSFLEQPPNLELAGTQPAFSAGPPADDSSSTSSGEWYQNFQPPPQPPSEEQFGCPGSPSPQPDSTDNDDFDDISAA | 
5 | 620 to 2820 | 260 to 1820 |  |  | recombinant SLP-76 SH2 domain (his-tagged) (protein, UniProt Q13094 422-530, looked up) WYVSYITRPEAEAALRKINQDGTFLVRDSSKKTTTNPYVLMVLYKDKVYNIQIRYQKESQVYLLGTGLRGKEDFLSVSDIIDYFRKMPLLLIDGKNRGSRYQCTLTHAA | Kd [5]: 890 to 3090 nM; Kd [6]: 310 to 1870 nM
6 |  |  | almost no SLP-76 and GADS was detected | almost no SLP-76 and GADS was detected | CD6 Y629F Y662F: mutant form of CD6 with both tyrosine residues Y629 and Y662 substituted (protein, UniProt P30203 1-668, looked up, variant Y629F Y662F) MWLFFGITGLLTAALSGHPSPAPPDQLNTSSAESELWEPGERLPVRLTNGSSSCSGTVEVRLEASWEPACGALWDSRAAEAVCRALGCGGAEAASQLAPPTPELPPPPAAGNTSVAANATLAGAPALLCSGAEWRLCEVVEHACRSDGRRARVTCAENRALRLVDGGGACAGRVEMLEHGEWGSVCDDTWDLEDAHVVCRQLGCGWAVQALPGLHFTPGRGPIHRDQVNCSGAEAYLWDCPGLPGQHYCGHKEDAGAVCSEHQSWRLTGGADRCEGQVEVHFRGVWNTVCDSEWYPSEAKVLCQSLGCGTAVERPKGLPHSLSGRMYYSCNGEELTLSNCSWRFNNSNLCSQSLAARVLCSASRSLHNLSTPEVPASVQTVTIESSVTVKIENKESRELMLLIPSIVLGILLLGSLIFIAFILLRIKGKYALPVMVNHQHLPTTIPAGSNSYQPVPITIPKEVFMLPIQVQAPPPEDSDSGSDSDYEHYDFSAQPPVALTTFYNSQRHRVTDEEVQQSRFQMPPLEEGLEELHASHIPTANPGHCITDPPSLGPQYHPRSNSESSTSSGEDYCNSPKSKLPPWNPQVFSSERSSFLEQPPNLELAGTQPAFSAGPPADDSSSTSSGEWFQNFQPPPQPPSEEQFGCPGSPSPQPDSTDNDDFDDISAA | percentage of IL-2 positive cells (primary T cells; CD3 antibodies but not CD6 antibodies): did not show a significantly increased level of T cell activation; percentage of IL-2 positive cells (primary T cells; both CD3 antibodies and CD6 antibodies, three donors): did not show a significantly increased percentage of IL-2 positive cells; percentage of CD69 positive cells (CD4+ T cells): no significant difference
